US20200247894A1 (Regeneron, published 2020)

T1: Human IL2Rγ extracellular domain expressed with a C-terminal myc-myc-hexahistidine tag (human)
T1 construct: also called hIL-2Rg-MMH; hIL-2RG-MMH
T1 chain: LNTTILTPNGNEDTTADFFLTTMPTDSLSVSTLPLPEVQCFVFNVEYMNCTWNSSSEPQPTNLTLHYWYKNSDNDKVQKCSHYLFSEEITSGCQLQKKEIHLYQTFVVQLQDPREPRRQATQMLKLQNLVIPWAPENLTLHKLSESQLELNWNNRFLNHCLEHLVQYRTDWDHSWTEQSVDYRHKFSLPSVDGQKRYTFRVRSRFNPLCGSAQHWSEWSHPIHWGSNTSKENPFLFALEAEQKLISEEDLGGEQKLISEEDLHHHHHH

T2: Macaca fascicularis IL2Rγ extracellular domain expressed with a C-terminal myc-myc-hexahistidine tag (Macaca fascicularis)
T2 construct: also called mfIL-2Rg-MMH; mfIL-2RG-MMH
T2 chain: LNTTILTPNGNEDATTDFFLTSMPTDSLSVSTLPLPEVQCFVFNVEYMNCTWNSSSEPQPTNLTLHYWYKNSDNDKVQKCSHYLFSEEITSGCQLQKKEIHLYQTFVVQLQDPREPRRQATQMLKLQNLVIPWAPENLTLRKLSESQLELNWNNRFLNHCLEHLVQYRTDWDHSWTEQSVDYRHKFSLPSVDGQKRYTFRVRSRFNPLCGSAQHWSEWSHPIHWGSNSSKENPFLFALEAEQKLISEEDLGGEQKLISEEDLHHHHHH


Columns and labels:
[1] = target: T1, Human IL2Rγ extracellular domain …; assay: SPR, captured mAb, 25C, dissociation pH 7.4
Method: (§1) The dissociation rate constant (kd) for binding of IL-2Rγ reagents to purified anti-IL2Rγ monoclonal antibodies was determined using a real-time surface plasmon resonance based Biacore 4000 biosensor platform. […] The CM5 Biacore sensor surface derivatized by amine coupling with monoclonal mouse anti-human Fc antibody (GE, Catalog # BR-1008-39) was used to capture anti-IL2Rγ monoclonal antibodies expressed with human IgG4 Fc. All the IL2Rγ reagents were expressed with a C-terminal myc-myc-hexahistidine tag (subsequently referred to with a -MMH suffix). […] The dissociation of bound IL-2Rg-MMH was performed in PBS-T-pH7.4 or PBS-T-pH6.0 running buffers for 6 minutes.
(§2) Dissociation rate constants (kd) in two running buffers were determined by fitting the real-time binding sensorgrams to a 1:1 binding model using Scrubber 2.0c curve-fitting software. Values of dissociation rate for […] mAb binding to hIL-2RG-MMH and mfIL-2RG-MMH at 25° C. and 37° C. in PBS-T-pH7.4 and PBS-T-pH6.0 is shown in Table 2-1 through Table 2-8.

[2] = target: T2, Macaca fascicularis IL2Rγ extracellular …; assay: SPR, captured mAb, 25C, dissociation pH 7.4
Method: as §1, §2

[3] = target: T1, Human IL2Rγ extracellular domain …; assay: SPR, captured mAb, 37C, dissociation pH 7.4
Method: as §1, §2

[4] = target: T1, Human IL2Rγ extracellular domain …; assay: SPR, captured mAb, 25C, dissociation pH 6.0
Method: as §1, §2

[5] = target: T2, Macaca fascicularis IL2Rγ extracellular …; assay: SPR, captured mAb, 25C, dissociation pH 6.0
Method: as §1, §2

[6] = target: T1, Human IL2Rγ extracellular domain …; assay: SPR, captured mAb, 37C, dissociation pH 6.0
Method: as §1, §2

Row | Binder | 100 nM Ag Bound (RU) [1] | koff [1] | t1/2 [1] | 100 nM Ag Bound (RU) [2] | koff [2] | t1/2 [2] | 100 nM Ag Bound (RU) [3] | koff [3] | t1/2 [3] | 100 nM Ag Bound (RU) [4] | koff [4] | t1/2 [4] | 100 nM Ag Bound (RU) [5] | koff [5] | t1/2 [5] | 100 nM Ag Bound (RU) [6] | koff [6] | t1/2 [6]
1 | H4H12913P2 (antibody, human IgG4 S228P, kappa, V domains shown, anti-IL2Rgamma mAb expressed with human IgG4 Fc) VH: EVQLVESGGGVVRPGGSLRLSCAASGFTFDDYGMSWVRQAPGKGLEWISSINRNGGSADYADSVKGRFTISRDNAKNSLFLQMSSLRAEDTALYHCASGEFRFDYWGQGTLVTVSS VL: not shown | 56 RU | 0.000303 s⁻¹ | 38 min | 57 RU | 0.000272 s⁻¹ | 43 min | 82 RU | 0.00116 s⁻¹ | 10 min | 43 RU | 0.00105 s⁻¹ | 11 min | 44 RU | 0.000992 s⁻¹ | 12 min | 59 RU | 0.00383 s⁻¹ | 3 min
2 | H4H12927P2 (antibody, human IgG4 S228P, kappa, V domains shown, anti-IL2Rgamma mAb expressed with human IgG4 Fc) VH: EVQLVESGGGVVRPGGSLRLSCATSGFTFDDYGMSWVRQVPGKGLEWVSSVNRNGGTTDYADSVKGRFTISRDNAKRSLFLQMNSLRAEDTALYHCATGELFFDYWGQGTLVTVSS VL: not shown | 36 RU | 0.00163 s⁻¹ | 7 min | 38 RU | 0.000984 s⁻¹ | 12 min | 23 RU | 0.00982 s⁻¹ | 1.2 min | 30 RU | 0.00499 s⁻¹ | 2.3 min | 30 RU | 0.0032 s⁻¹ | 3.6 min | 19 RU | 0.0239 s⁻¹ | 0.5 min
3 | H4H12858P (antibody, human IgG4 S228P, kappa, V domains shown, anti-IL2Rgamma mAb expressed with human IgG4 Fc; also called REGN9433) VH: EVQLVESGGDLVQPGGSLRLSCTASGFIFRNYAMNWVRQAPGKGLEWLSGILGSNDNTYYVDSVKGRFTISRDNSRNTLYLQMNSLRAEDSAVYYCAKGDAGGFDYWGQGTLVTVSS VL: DVVMTQSPLSLPVILGQPASISCRSSQSLVSSDGNTYLNWFQQRPGQSPRRLIYKVSNRDSGVPDRFSGSGSGTDFTLKISRVEAEDVGAYYCMQGSYWPPTFGQGTKLEIKR | 111 RU | 0.000184 s⁻¹ | 63 min | 111 RU | 0.000171 s⁻¹ | 68 min | 141 RU | 0.000661 s⁻¹ | 17 min | 103 RU | 0.000377 s⁻¹ | 31 min | 100 RU | 0.000385 s⁻¹ | 30 min | 136 RU | 0.00172 s⁻¹ | 7 min
4 | H4H13538P (antibody, human IgG4 S228P, kappa, V domains shown, anti-IL2Rgamma mAb expressed with human IgG4 Fc) VH: EVQLVESGGGLVQPGGSLGLSCAASGFTFSNYAMSWVRQAPGKGLEWVSAVSGGGGGTYYADSVKGRFTISRDNSKNTVLLQMNSLRAEDTAVYYCARGRTGGLDYWGPGTLVTVSS VL: DVVMTQSPLSLPVIFGQPASISCRSSQSLVDSDGNTYLNWLQQRPGQSPRRLIYEVSNRDSGVPDRFSGSGSGTDFTLTISRVEAEDVGIYYCMQGTRWPPTFGGGTKVEIKR | 82 RU | 0.000139 s⁻¹ | 83 min | 94 RU | 0.000179 s⁻¹ | 65 min | 110 RU | 0.000599 s⁻¹ | 19 min | 93 RU | 0.000417 s⁻¹ | 28 min | 96 RU | 0.000439 s⁻¹ | 26 min | 120 RU | 0.00148 s⁻¹ | 8 min
5 | H4H12922P2 (antibody, human IgG4 S228P, kappa, V domains shown, anti-IL2Rgamma mAb expressed with human IgG4 Fc; also called REGN7256) VH: QVQLVESGGGVVKPGGSLRLSCAASGFTFSNSGIHWVRQAPGKGLEWVALISYAGSNKYYADSVKGRFTISRDNSKNTLSLQMNSLRAEDTAVYYCAKEVWTGTYDSFDMWGRGTMVTVSS VL: not shown | 164 RU | 0.000204 s⁻¹ | 57 min | 168 RU | 0.000191 s⁻¹ | 61 min | 184 RU | 0.000773 s⁻¹ | 15 min | 126 RU | 0.00118 s⁻¹ | 10 min | 129 RU | 0.00111 s⁻¹ | 10 min | 147 RU | 0.00374 s⁻¹ | 3 min
6 | H4H12859P (antibody, human IgG4 S228P, kappa, V domains shown, anti-IL2Rgamma mAb expressed with human IgG4 Fc) VH: QVQLVQSGAEVKKPGASVRVSCKASGYTFTDYDIHWVRQAPGHGLEWMGWINPNSGGTNYAQKFQGRVTMTRDTSISTVYMDLSRLRSDDTAVYYCARADYSSSYYYYGMDVWGQGTTVTVSS VL: not shown | 54 RU | 0.00111 s⁻¹ | 10 min | 51 RU | 0.000871 s⁻¹ | 13 min | 55 RU | 0.00454 s⁻¹ | 2.5 min | 39 RU | 0.00503 s⁻¹ | 2.3 min | 37 RU | 0.00413 s⁻¹ | 2.8 min | 36 RU | 0.0132 s⁻¹ | 0.9 min
